Assay results as given in US8465735B2, “Variant form of urate oxidase and use thereof” (Savient Pharmaceuticals, Inc., priority 2005, dated 2013).

Test system: O=c1[nH]c(=O)c2[nH]c(=O)[nH]c2[nH]1
Assay: purified protein, by the assay type
Conditions: other: sodium borate buffer, pH 9.2, 25.0 °C
Description: Activity of uricase was measured by a UV method. […] Uricase potency is expressed in activity units per mg protein (U/mg).
The absorbance change with time (ΔA292 per minute) was derived from the linear portion of the curve.
The specific activity (potency) of uricase was calculated by dividing the activity in U/ml with protein concentration in mg/ml.

## A. flavus (Aspergillus flavus) uricase, native (Merck) (Aspergillus flavus)
  Km: 23.54 µM
  kcat: 11.2 s⁻¹
